From patent publication US20190315854A1 (BEIJING VDJBIO, published 2019)
Where two headings read alike, the source gives them in different places.

T1: sIL-6R (soluble IL-6 receptor; SBH Sciences) (human, UniProt P08887 20-365)
T1 construct: also called human IL-6R
T1 sequence: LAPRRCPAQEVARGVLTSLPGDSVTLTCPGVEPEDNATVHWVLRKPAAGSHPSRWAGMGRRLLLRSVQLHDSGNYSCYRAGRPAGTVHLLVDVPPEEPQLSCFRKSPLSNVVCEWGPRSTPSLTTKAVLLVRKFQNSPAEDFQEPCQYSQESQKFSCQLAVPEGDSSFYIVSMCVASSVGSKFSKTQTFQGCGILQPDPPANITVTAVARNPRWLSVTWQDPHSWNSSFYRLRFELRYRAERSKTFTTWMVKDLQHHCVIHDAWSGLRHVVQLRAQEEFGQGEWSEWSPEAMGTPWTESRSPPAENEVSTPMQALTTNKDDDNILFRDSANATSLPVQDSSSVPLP


Tests used:
[1] = target: T1, sIL-6R (soluble IL-6 receptor; SBH …); experiment: SPR (BIAcore 3000), antibody on chip, sIL-6R analyte, 25 C
Experimental: (§1) All SPR measurements were performed on a BIAcore 3000 instrument (GE Biosciences, Piscataway, N.J.). BIAcore Software-BIAcore 3000 Control Software V3.2 was used for the operation and control of the BIAcore 3000 instrument. BiaEvaluation Software V4.1 was used for the analysis of SPR data from the BIAcore 3000 instrument and data was plotted using Graph Pad Prism Software Version 5. […] The indicated antibodies were used as the ligand for the construction of the reference channel of the chip. […] Each sample was injected for 3 min at a flow rate of 30 μL/min to allow for binding to chip-bound antibody. Next, binding buffer without analyte was sent over the chip at the same flow rate to allow for dissociation of bound analyte. After 500s, remaining bound analyte was removed by injecting regeneration solution (1M Formic acid). Data was analyzed by using the Kinetics Wizard and the manual fitting programs that are both included with the BiaEvaluation Software V4.1.

[2] = target: T1, sIL-6R (soluble IL-6 receptor; SBH …); experiment: as above; remark: listed apart in the source
Experimental: as §1

[3] = target: T1, sIL-6R (soluble IL-6 receptor; SBH …); experiment: SPR (BIAcore 3000), antibody on chip, sIL-6R analyte, pH 7.4
Experimental: as §1
(§2) SPR measurements at pH 7.4 and pH 6.0 were performed in parallel and KD values calculated according to the protocol as detailed in Example 1. The pH dependence is calculated as the ratio between the KD value at pH 6.0 and the KD value at pH 7.4, which indicates the fold of affinity decrease from the pH7.4 to pH6.0. If the pH dependence of a subject antibody described herein is over 1, it means that the antibody binds to IL-6R in such a pH-dependent manner that its binding to IL-6R at pH7.4 is higher than at pH6.0. If the pH dependence of a subject antibody described herein is lower than 1, it means that the antibody binds to IL-6R in such a pH-dependent manner that its binding to IL-6R at pH6.0 is higher than at pH7.4.

[4] = target: T1, sIL-6R (soluble IL-6 receptor; SBH …); experiment: SPR (BIAcore 3000), antibody on chip, sIL-6R analyte, pH 6.0
Experimental: as §1, §2

[5] = target: T1, sIL-6R (soluble IL-6 receptor; SBH …); experiment: SPR; ratio of KD at pH 6.0 to KD at pH 7.4
Experimental: as §1, §2

Binder | Kd [1] [pM] | Relative Affinity [1] | koff [1] [s⁻¹] | kon [1] [M⁻¹ s⁻¹] | Kd [2] [pM] | Relative Affinity [2] | koff [2] [s⁻¹] | kon [2] [M⁻¹ s⁻¹] | further results
62# (antibody, human IgG1, kappa, V domains shown, also called Sample # 62) VH: QVQLQESGPGLVRPSQTLSLTCTVSGYSITSDHAWSWVRQPPGRGLEWIGFISYSGMTTYNPSLKSRVTMLRDTSKNQFSLRLSSVTAADTAVYYCARCLARATAMDYWGQGSLVTVSS VL: DIQMTQSPSSLSASVGDRVTITCRASQDISSYLNWYQQKPGKAPKLLIYYTSRLHSGVPSRFSGSGSGTDFTFTISSLQPEDIATYYCQQGNTLPYTFGQGTKVEIKR | 25.8 | 110 fold vs 25 (Tocilizumab) | 6.61e-06 | 256000 |  |  |  |  | 
203# (antibody, human IgG1, kappa, V domains shown, also called Sample # 203) VH: QVQLQESGPGLVRPSQTLSLTCTVSGYSITSDHAWSWVRQPPGRGLEWIGYISYSGITTYNPSLKSRVTMLRDTSKNQFSLRLSSVTAADTAVYYCARCLARMTAMDYWGQGSLVTVSS VL: DIQMTQSPSSLSASVGDRVTITCRASQDISSYLNWYQQKPGKAPKLLIYYTSRLHSGVPSRFSGSGSGTDFTFTISSLQPEDIATYYCGQGNRLPYTFGQGTKVEIKR | 334 | 8.5 fold vs 25 (Tocilizumab) | 3.17e-05 | 95000 |  |  |  |  | 
205# (antibody, human IgG1, kappa, V domains shown) VH: QVQLQESGPGLVRPSQTLSLTCTVSGYSITSDHAWSWVRQPPGRGLEWIGFISYSGMTTYNPSLKSRVTMLRDTSKNQFSLRLSSVTAADTAVYYCARCLARTTAMDYWGQGSLVTVSS VL: DIQMTQSPSSLSASVGDRVTITCRASQDISSYLNWYQQKPGKAPKLLIYYTSRLHSGVPSRFSGSGSGTDFTFTISSLQPEDIATYYCGQGNRLPYTFGQGTKVEIKR | 12.2 | 234 fold vs 25 (Tocilizumab) | 2.14e-06 | 175000 |  |  |  |  | Kd [3]: 12.2 pM; koff [3]: 2.14e-06 s⁻¹; kon [3]: 175000 M⁻¹ s⁻¹; Kd [4]: 56 pM; koff [4]: 2.15e-05 s⁻¹; kon [4]: 384000 M⁻¹ s⁻¹; pH dependence (Fold of affinity decrease) [5]: 4.59 fold
64# (antibody, human IgG1, kappa, V domains shown, also called Sample # 64) VH: QVQLQESGPGLVRPSQTLSLTCTVSGYSITSDHAWSWVRQPPGRGLEWIGFISYSGMTTYNPSLKSRVTMLRDTSKNQFSLRLSSVTAADTAVYYCARCLARMTAMDYWGQGSLVTVSS VL: DIQMTQSPSSLSASVGDRVTITCRASQDISSYLNWYQQKPGKAPKLLIYYTSRLHSGVPSRFSGSGSGTDFTFTISSLQPEDIATYYCQQGNTLPYTFGQGTKVEIKR | 133 | 21.4 fold vs 25 (Tocilizumab) | 2.85e-05 | 214000 |  |  |  |  | 
201# (antibody, human IgG1, kappa, V domains shown, also called Sample # 201) VH: QVQLQESGPGLVRPSQTLSLTCTVSGYSITSDHAWSWVRQPPGRGLEWIGFISYSGMTTYNPSLKSRVTMLRDTSKNQFSLRLSSVTAADTAVYYCARCLARITAIDFWGQGSLVTVSS VL: DIQMTQSPSSLSASVGDRVTITCRASQDISSYLNWYQQKPGKAPKLLIYYTSRLHSGVPSRFSGSGSGTDFTFTISSLQPEDIATYYCQQGNTLPYTFGQGTKVEIKR | 67.4 | 42.3 fold vs 25 (Tocilizumab) | 1.47e-05 | 218000 |  |  |  |  | 
208# (antibody, human IgG1, kappa, V domains shown, also called Sample # 208) VH: QVQLQESGPGLVRPSQTLSLTCTVSGYSITSDHAWSWVRQPPGRGLEWIGFISYSGMTTYNPSLKSRVTMLRDTSKNQFSLRLSSVTAADTAVYYCARSLARATAMDYWGQGSLVTVSS VL: DIQMTQSPSSLSASVGDRVTITCRASQDISSYLNWYQQKPGKAPKLLIYYTSRLHSGVPSRFSGSGSGTDFTFTISSLQPEDIATYYCQQGNTLPYTFGQGTKVEIKR | 126 | 22.6 fold vs 25 (Tocilizumab) | 2.79e-05 | 221000 |  |  |  |  | 
68# (antibody, human IgG1, kappa, V domains shown, also called Sample # 68) VH: QVQLQESGPGLVRPSQTLSLTCTVSGYSITSDHAWSWVRQPPGRGLEWIGFISYSGMTTYNPSLKSRVTMLRDTSKNQFSLRLSSVTAADTAVYYCARCLARITAIDYFGQGSLVTVSS VL: DIQMTQSPSSLSASVGDRVTITCRASQDISSYLNWYQQKPGKAPKLLIYYTSRLHSGVPSRFSGSGSGTDFTFTISSLQPEDIATYYCQQGNTLPYTFGQGTKVEIKR | 29.6 | 96.3 fold vs 25 (Tocilizumab) | 8.6e-06 | 291000 |  |  |  |  | 
66# (antibody, human IgG1, kappa, V domains shown, also called Sample # 66) VH: QVQLQESGPGLVRPSQTLSLTCTVSGYSITSDHAWSWVRQPPGRGLEWIGFISYSGMTTYNPSLKSRVTMLRDTSKNQFSLRLSSVTAADTAVYYCARSLARMTAMDYWGQGSLVTVSS VL: DIQMTQSPSSLSASVGDRVTITCRASQDISSYLNWYQQKPGKAPKLLIYYTSRLHSGVPSRFSGSGSGTDFTFTISSLQPEDIATYYCQQGNTLPYTFGQGTKVEIKR | 141 | 20.2 fold vs 25 (Tocilizumab) | 3.38e-05 | 239000 |  |  |  |  | 

Continued, in another order:

Kd [1] [pM] | Relative Affinity [1] | koff [1] [s⁻¹] | kon [1] [M⁻¹ s⁻¹] | Kd [2] [pM] | Relative Affinity [2] | koff [2] [s⁻¹] | kon [2] [M⁻¹ s⁻¹] | Binder | further results
 |  |  |  | 189 | 14.8 fold vs 25 (Tocilizumab) | 1.73e-05 | 91200 | 248# (antibody, human IgG1, kappa, V domains shown, also called Sample # 248) VH: QVQLQESGPGLVRPSQTLSLTCTVSGYSITSDHAWSWVRQPPGRGLEWIGYISYSGMITYNPSLKSRVTMLRDTSKNQFSLRLSSVTAADTAVYYCARTLARMTAIDFWGQGSLVTVSS VL: DIQMTQSPSSLSASVGDRVTITCRASQDISSYLNWYQQKPGKAPKLLIYYTSRLHSGVPSRFSGSGSGTDFTFTISSLQPEDIATYYCGQGNRLPYTFGQGTKVEIKR | 
 |  |  |  | 354 | 7.9 fold vs 25 (Tocilizumab) | 9.27e-05 | 262000 | 250# (antibody, human IgG1, kappa, V domains shown, also called Sample # 250) VH: QVQLQESGPGLVRPSQTLSLTCTVSGYSITSDHAWSWVRQPPGRGLEWIGYISYSGMTTYNPSLKSRVTMLRDTSKNQFSLRLSSVTAADTAVYYCARSLARITAMDYWGQGSLVTVSS VL: DIQMTQSPSSLSASVGDRVTITCRASQDISSYLNWYQQKPGKAPKLLIYYTSRLHSGVPSRFSGSGSGTDFTFTISSLQPEDIATYYCQQGNTLPYTFGQGTKVEIKR | 
 |  |  |  | 212 | 13.2 fold vs 25 (Tocilizumab) | 3.54e-05 | 167000 | 247# (antibody, human IgG1, kappa, V domains shown, also called Sample # 247) VH: QVQLQESGPGLVRPSQTLSLTCTVSGYSITSDHAWSWVRQPPGRGLEWIGYISYSGMTTYNPSLKSRVTMLRDTSKNQFSLRLSSVTAADTAVYYCARCLARMTAMDYWGQGSLVTVSS VL: DIQMTQSPSSLSASVGDRVTITCRASQDISSYLNWYQQKPGKAPKLLIYYTSRLHSGVPSRFSGSGSGTDFTFTISSLQPEDIATYYCGQGNRLPYTFGQGTKVEIKR | 
 |  |  |  | 241 | 11.6 fold vs 25 (Tocilizumab) | 3.39e-05 | 141000 | 249# (antibody, human IgG1, kappa, V domains shown) VH: QVQLQESGPGLVRPSQTLSLTCTVSGYSITSDHAWSWVRQPPGRGLEWIGYISYSGMTTYNPSLKSRVTMLRDTSKNQFSLRLSSVTAADTAVYYCARCLARATAMDYWGQGSLVTVSS VL: DIQMTQSPSSLSASVGDRVTITCRASQDISSYLNWYQQKPGKAPKLLIYYTSRLHSGVPSRFSGSGSGTDFTFTISSLQPEDIATYYCGQGNRLPYTFGQGTKVEIKR | 
 |  |  |  | 805 | 3.5 fold vs 25 (Tocilizumab) | 0.00014 | 173000 | 251# (antibody, human IgG1, kappa, V domains shown, also called Sample # 251) VH: QVQLQESGPGLVRPSQTLSLTCTVSGYSITSDHAWSWVRQPPGRGLEWIGYISYSGMITYNPSLKSRVTMLRDTSKNQFSLRLSSVTAADTAVYYCARSLARITAMDYWGQGSLVTVSS VL: DIQMTQSPSSLSASVGDRVTITCRASQDISSYLNWYQQKPGKAPKLLIYYTSRLHSGVPSRFSGSGSGTDFTFTISSLQPEDIATYYCQQGNTLPYTFGQGTKVEIKR | 
